Experimental data from publication PMC9482650, “Quantitative fragmentomics allow affinity mapping of interactomes” (Nature Communications, 2022).

molecular target: T1, APBA2_2, Q99767; assay: holdup assay; design: key: below the threshold = too weak to quantify, mostly under pKd 3.1 to 4; settings: plain residues with an end cap or a label only (N-terminal biotin on a linker: ado-ado)
T1 sequence (Q99767 654-744, limits assumed, looked up): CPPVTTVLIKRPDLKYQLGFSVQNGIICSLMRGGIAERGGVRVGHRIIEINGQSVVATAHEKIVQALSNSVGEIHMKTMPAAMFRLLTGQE

Row | Binder | pKd
1 | QSARLWETSI [ADAM22, Q9P0K1] | below the threshold
2 | QSPANIYYKV [EFNB1, P52799] | below the threshold

molecular target: CASK, O14936; assay: holdup assay; design: key: below the threshold = too weak to quantify, mostly under pKd 3.1 to 4; settings: plain residues with an end cap or a label only (N-terminal biotin on a linker: ado-ado)
Sequence (O14936 487-570): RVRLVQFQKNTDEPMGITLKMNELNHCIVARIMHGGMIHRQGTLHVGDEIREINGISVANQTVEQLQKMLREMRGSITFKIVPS

Row | Binder | pKd
3 | QSARLWETSI [ADAM22, Q9P0K1] | below the threshold
4 | QSPANIYYKV [EFNB1, P52799] | below the threshold

molecular target: DLG4_2, P78352; assay: holdup assay; design: key: below the threshold = too weak to quantify, mostly under pKd 3.1 to 4; settings: plain residues with an end cap or a label only (N-terminal biotin on a linker: ado-ado)
Sequence (P78352 155-259): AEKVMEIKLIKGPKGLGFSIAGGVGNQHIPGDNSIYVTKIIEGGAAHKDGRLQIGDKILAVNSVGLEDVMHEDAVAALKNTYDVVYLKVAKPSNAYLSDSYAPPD

Row | Binder | pKd
5 | QSARLWETSI [ADAM22, Q9P0K1] | 4.18
6 | QSPANIYYKV [EFNB1, P52799] | below the threshold

molecular target: DLG4_3, P78352; assay: holdup assay; design: key: below the threshold = too weak to quantify, mostly under pKd 3.1 to 4; settings: plain residues with an end cap or a label only (N-terminal biotin on a linker: ado-ado)
Sequence (P78352 306-403): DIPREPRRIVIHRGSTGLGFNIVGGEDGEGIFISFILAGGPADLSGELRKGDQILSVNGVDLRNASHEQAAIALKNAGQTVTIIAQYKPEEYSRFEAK

Row | Binder | pKd
7 | QSARLWETSI [ADAM22, Q9P0K1] | 4.23
8 | QSPANIYYKV [EFNB1, P52799] | below the threshold

molecular target: FRMPD3, Q5JV73; assay: holdup assay; design: key: below the threshold = too weak to quantify, mostly under pKd 3.1 to 4; settings: plain residues with an end cap or a label only (N-terminal biotin on a linker: ado-ado)
Sequence (Q5JV73 12-100): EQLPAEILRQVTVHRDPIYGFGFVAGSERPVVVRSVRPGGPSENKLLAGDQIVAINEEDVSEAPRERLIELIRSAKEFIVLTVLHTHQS

Row | Binder | pKd
9 | QSARLWETSI [ADAM22, Q9P0K1] | below the threshold
10 | QSPANIYYKV [EFNB1, P52799] | below the threshold

molecular target: FRMPD4, Q14CM0; assay: holdup assay; design: key: below the threshold = too weak to quantify, mostly under pKd 3.1 to 4; settings: plain residues with an end cap or a label only (N-terminal biotin on a linker: ado-ado)
Sequence (Q14CM0 67-160): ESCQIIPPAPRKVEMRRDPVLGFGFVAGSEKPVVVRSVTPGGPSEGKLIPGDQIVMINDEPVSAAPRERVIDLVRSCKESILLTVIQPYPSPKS

Row | Binder | pKd
11 | QSARLWETSI [ADAM22, Q9P0K1] | below the threshold
12 | QSPANIYYKV [EFNB1, P52799] | 3.8

molecular target: GORASP1, Q9BQQ3; assay: holdup assay; design: key: below the threshold = too weak to quantify, mostly under pKd 3.1 to 4; settings: plain residues with an end cap or a label only (N-terminal biotin on a linker: ado-ado)
Sequence (Q9BQQ3 1-208): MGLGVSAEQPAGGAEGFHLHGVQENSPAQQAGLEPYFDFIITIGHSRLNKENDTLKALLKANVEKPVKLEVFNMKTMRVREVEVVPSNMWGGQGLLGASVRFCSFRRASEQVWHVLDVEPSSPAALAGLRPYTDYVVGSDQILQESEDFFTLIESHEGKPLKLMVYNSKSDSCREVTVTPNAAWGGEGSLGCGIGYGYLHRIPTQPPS

Row | Binder | pKd
13 | QSARLWETSI [ADAM22, Q9P0K1] | below the threshold
14 | QSPANIYYKV [EFNB1, P52799] | 4.85

molecular target: T2, GRIP1_3, Q9Y3R0; assay: holdup assay; design: key: below the threshold = too weak to quantify, mostly under pKd 3.1 to 4; settings: plain residues with an end cap or a label only (N-terminal biotin on a linker: ado-ado)
T2 sequence (Q9Y3R0 247-346, limits assumed, looked up): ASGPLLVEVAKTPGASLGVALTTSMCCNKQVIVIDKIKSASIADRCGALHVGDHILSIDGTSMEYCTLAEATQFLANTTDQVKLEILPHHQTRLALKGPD

Row | Binder | pKd
15 | QSARLWETSI [ADAM22, Q9P0K1] | below the threshold
16 | QSPANIYYKV [EFNB1, P52799] | below the threshold

molecular target: T3, GRIP1_5, Q9Y3R0; assay: holdup assay; design: key: below the threshold = too weak to quantify, mostly under pKd 3.1 to 4; settings: plain residues with an end cap or a label only (N-terminal biotin on a linker: ado-ado)
T3 sequence (Q9Y3R0 568-668, limits assumed, looked up): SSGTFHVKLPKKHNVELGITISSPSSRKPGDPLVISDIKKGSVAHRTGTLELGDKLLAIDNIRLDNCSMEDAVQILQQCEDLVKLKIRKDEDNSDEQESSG

Row | Binder | pKd
17 | QSARLWETSI [ADAM22, Q9P0K1] | below the threshold
18 | QSPANIYYKV [EFNB1, P52799] | below the threshold

molecular target: GRIP2_4, Q9C0E4; assay: holdup assay; design: key: below the threshold = too weak to quantify, mostly under pKd 3.1 to 4; settings: plain residues with an end cap or a label only (N-terminal biotin on a linker: ado-ado)
Sequence (Q9C0E4 446-548): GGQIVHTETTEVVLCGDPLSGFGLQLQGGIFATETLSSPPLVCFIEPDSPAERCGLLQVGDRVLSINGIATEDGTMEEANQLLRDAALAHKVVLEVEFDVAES

Row | Binder | pKd
19 | QSARLWETSI [ADAM22, Q9P0K1] | below the threshold
20 | QSPANIYYKV [EFNB1, P52799] | below the threshold

molecular target: GRIP2_7, Q9C0E4; assay: holdup assay; design: key: below the threshold = too weak to quantify, mostly under pKd 3.1 to 4; settings: plain residues with an end cap or a label only (N-terminal biotin on a linker: ado-ado)
Sequence (Q9C0E4 934-1023): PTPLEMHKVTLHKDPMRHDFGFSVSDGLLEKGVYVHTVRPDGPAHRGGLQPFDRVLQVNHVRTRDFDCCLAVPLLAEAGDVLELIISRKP

Row | Binder | pKd
21 | QSARLWETSI [ADAM22, Q9P0K1] | below the threshold
22 | QSPANIYYKV [EFNB1, P52799] | 4.34

molecular target: IL16_4, Q14005; assay: holdup assay; design: key: below the threshold = too weak to quantify, mostly under pKd 3.1 to 4; settings: plain residues with an end cap or a label only (N-terminal biotin on a linker: ado-ado)
Sequence (Q14005 1229-1329): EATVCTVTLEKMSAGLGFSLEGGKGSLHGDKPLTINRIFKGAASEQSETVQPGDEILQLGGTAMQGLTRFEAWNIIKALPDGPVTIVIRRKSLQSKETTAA

Row | Binder | pKd
23 | QSARLWETSI [ADAM22, Q9P0K1] | 3.47
24 | QSPANIYYKV [EFNB1, P52799] | below the threshold

molecular target: Inadl_1, Q8NI35; assay: holdup assay; design: key: below the threshold = too weak to quantify, mostly under pKd 3.1 to 4; settings: plain residues with an end cap or a label only (N-terminal biotin on a linker: ado-ado)
Sequence (Q8NI35 113-229): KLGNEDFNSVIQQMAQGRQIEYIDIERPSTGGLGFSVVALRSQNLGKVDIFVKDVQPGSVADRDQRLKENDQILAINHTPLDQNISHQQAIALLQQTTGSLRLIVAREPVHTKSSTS

Row | Binder | pKd
25 | QSARLWETSI [ADAM22, Q9P0K1] | 3.84
26 | QSPANIYYKV [EFNB1, P52799] | 3.82

molecular target: Inadl_6, Q8NI35; assay: holdup assay; design: key: below the threshold = too weak to quantify, mostly under pKd 3.1 to 4; settings: plain residues with an end cap or a label only (N-terminal biotin on a linker: ado-ado)
Sequence (Q8NI35 1058-1167): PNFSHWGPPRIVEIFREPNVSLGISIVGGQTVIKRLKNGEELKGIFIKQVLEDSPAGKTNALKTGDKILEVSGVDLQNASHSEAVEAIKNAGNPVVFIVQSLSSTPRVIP

Row | Binder | pKd
27 | QSARLWETSI [ADAM22, Q9P0K1] | 4.06
28 | QSPANIYYKV [EFNB1, P52799] | below the threshold

molecular target: LNX1_1, Q8TBB1; assay: holdup assay; design: key: below the threshold = too weak to quantify, mostly under pKd 3.1 to 4; settings: plain residues with an end cap or a label only (N-terminal biotin on a linker: ado-ado)
Sequence (Q8TBB1 261-371): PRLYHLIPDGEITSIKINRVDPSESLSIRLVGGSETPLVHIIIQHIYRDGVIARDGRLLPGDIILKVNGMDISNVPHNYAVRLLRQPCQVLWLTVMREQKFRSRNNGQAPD

Row | Binder | pKd
29 | QSARLWETSI [ADAM22, Q9P0K1] | 4.43
30 | QSPANIYYKV [EFNB1, P52799] | below the threshold

molecular target: LNX1_2, Q8TBB1; assay: holdup assay; design: key: below the threshold = too weak to quantify, mostly under pKd 3.1 to 4; settings: plain residues with an end cap or a label only (N-terminal biotin on a linker: ado-ado)
Sequence (Q8TBB1 371-470): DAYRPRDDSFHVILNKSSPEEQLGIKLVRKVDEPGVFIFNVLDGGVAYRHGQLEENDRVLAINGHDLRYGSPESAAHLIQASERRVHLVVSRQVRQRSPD

Row | Binder | pKd
31 | QSARLWETSI [ADAM22, Q9P0K1] | below the threshold
32 | QSPANIYYKV [EFNB1, P52799] | 3.61

molecular target: LNX1_3, Q8TBB1; assay: holdup assay; design: key: below the threshold = too weak to quantify, mostly under pKd 3.1 to 4; settings: plain residues with an end cap or a label only (N-terminal biotin on a linker: ado-ado)
Sequence (Q8TBB1 500-596): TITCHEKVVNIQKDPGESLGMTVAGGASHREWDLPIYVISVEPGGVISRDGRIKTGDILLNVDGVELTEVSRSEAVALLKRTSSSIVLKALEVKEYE

Row | Binder | pKd
33 | QSARLWETSI [ADAM22, Q9P0K1] | below the threshold
34 | QSPANIYYKV [EFNB1, P52799] | 4.38

molecular target: MAGI1_1, Q96QZ7; assay: holdup assay; design: key: below the threshold = too weak to quantify, mostly under pKd 3.1 to 4; settings: plain residues with an end cap or a label only (N-terminal biotin on a linker: ado-ado)
Sequence (Q96QZ7 1-106): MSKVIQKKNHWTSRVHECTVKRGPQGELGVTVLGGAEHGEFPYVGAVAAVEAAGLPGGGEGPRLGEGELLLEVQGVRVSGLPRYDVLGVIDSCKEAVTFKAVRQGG

Row | Binder | pKd
35 | QSARLWETSI [ADAM22, Q9P0K1] | below the threshold
36 | QSPANIYYKV [EFNB1, P52799] | below the threshold

molecular target: MAGI1_2, Q96QZ7; assay: holdup assay; design: key: below the threshold = too weak to quantify, mostly under pKd 3.1 to 4; settings: plain residues with an end cap or a label only (N-terminal biotin on a linker: ado-ado)
Sequence (Q96QZ7 456-580): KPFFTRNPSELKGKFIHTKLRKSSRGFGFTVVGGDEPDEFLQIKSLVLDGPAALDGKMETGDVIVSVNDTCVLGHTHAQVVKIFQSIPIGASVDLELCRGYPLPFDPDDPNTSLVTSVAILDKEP

Row | Binder | pKd
37 | QSARLWETSI [ADAM22, Q9P0K1] | below the threshold
38 | QSPANIYYKV [EFNB1, P52799] | below the threshold

molecular target: MAGI2_5, Q86UL8; assay: holdup assay; design: key: below the threshold = too weak to quantify, mostly under pKd 3.1 to 4; settings: plain residues with an end cap or a label only (N-terminal biotin on a linker: ado-ado)
Sequence (Q86UL8 915-1017): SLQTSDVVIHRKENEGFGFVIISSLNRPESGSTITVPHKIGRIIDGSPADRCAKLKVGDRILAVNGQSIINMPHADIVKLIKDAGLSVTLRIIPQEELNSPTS

Row | Binder | pKd
39 | QSARLWETSI [ADAM22, Q9P0K1] | 3.7
40 | QSPANIYYKV [EFNB1, P52799] | below the threshold

molecular target: MAGI2_6, Q86UL8; assay: holdup assay; design: key: below the threshold = too weak to quantify, mostly under pKd 3.1 to 4; settings: plain residues with an end cap or a label only (N-terminal biotin on a linker: ado-ado)
Sequence (Q86UL8 1141-1229): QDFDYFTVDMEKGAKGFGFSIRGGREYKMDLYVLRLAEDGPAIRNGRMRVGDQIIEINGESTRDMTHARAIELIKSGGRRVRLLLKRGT

Row | Binder | pKd
41 | QSARLWETSI [ADAM22, Q9P0K1] | 4.22
42 | QSPANIYYKV [EFNB1, P52799] | below the threshold

molecular target: T4, PDZRN3_1, Q9UPQ7; assay: holdup assay; design: key: below the threshold = too weak to quantify, mostly under pKd 3.1 to 4; settings: plain residues with an end cap or a label only (N-terminal biotin on a linker: ado-ado)
T4 sequence (Q9UPQ7 244-349, limits assumed, looked up): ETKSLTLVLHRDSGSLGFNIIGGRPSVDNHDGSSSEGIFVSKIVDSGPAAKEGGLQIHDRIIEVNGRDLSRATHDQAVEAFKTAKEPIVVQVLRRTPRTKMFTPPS

Row | Binder | pKd
43 | QSARLWETSI [ADAM22, Q9P0K1] | 4.87
44 | QSPANIYYKV [EFNB1, P52799] | below the threshold

molecular target: PDZRN4_1, Q6ZMN7; assay: holdup assay; design: key: below the threshold = too weak to quantify, mostly under pKd 3.1 to 4; settings: plain residues with an end cap or a label only (N-terminal biotin on a linker: ado-ado)
Sequence (Q6ZMN7 213-318): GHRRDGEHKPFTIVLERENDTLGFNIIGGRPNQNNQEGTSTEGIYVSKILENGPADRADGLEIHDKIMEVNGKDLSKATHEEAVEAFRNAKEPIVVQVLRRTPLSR

Row | Binder | pKd
45 | QSARLWETSI [ADAM22, Q9P0K1] | 5
46 | QSPANIYYKV [EFNB1, P52799] | below the threshold

molecular target: PICK1, Q9NRD5; assay: holdup assay; design: key: below the threshold = too weak to quantify, mostly under pKd 3.1 to 4; settings: plain residues with an end cap or a label only (N-terminal biotin on a linker: ado-ado)
Sequence (Q9NRD5 17-115): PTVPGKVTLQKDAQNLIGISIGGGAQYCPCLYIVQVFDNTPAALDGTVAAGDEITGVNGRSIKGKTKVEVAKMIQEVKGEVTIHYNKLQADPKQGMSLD

Row | Binder | pKd
47 | QSARLWETSI [ADAM22, Q9P0K1] | 3.91
48 | QSPANIYYKV [EFNB1, P52799] | below the threshold

molecular target: T5, RADIL, Q96JH8; assay: holdup assay; design: key: below the threshold = too weak to quantify, mostly under pKd 3.1 to 4; settings: plain residues with an end cap or a label only (N-terminal biotin on a linker: ado-ado)
T5 sequence (Q96JH8 971-1071, limits assumed, looked up): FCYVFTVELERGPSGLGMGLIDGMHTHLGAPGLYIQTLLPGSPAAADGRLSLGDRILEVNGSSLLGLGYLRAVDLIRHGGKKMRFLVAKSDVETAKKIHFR

Row | Binder | pKd
49 | QSARLWETSI [ADAM22, Q9P0K1] | 3.71
50 | QSPANIYYKV [EFNB1, P52799] | 4.05

molecular target: SCRIB_2, Q14160; assay: holdup assay; design: key: below the threshold = too weak to quantify, mostly under pKd 3.1 to 4; settings: plain residues with an end cap or a label only (N-terminal biotin on a linker: ado-ado)
Sequence (Q14160 857-960): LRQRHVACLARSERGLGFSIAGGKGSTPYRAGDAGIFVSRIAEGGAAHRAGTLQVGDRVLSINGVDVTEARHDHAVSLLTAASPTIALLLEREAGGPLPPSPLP

Row | Binder | pKd
51 | QSARLWETSI [ADAM22, Q9P0K1] | 4.71
52 | QSPANIYYKV [EFNB1, P52799] | below the threshold

molecular target: SCRIB_3, Q14160; assay: holdup assay; design: key: below the threshold = too weak to quantify, mostly under pKd 3.1 to 4; settings: plain residues with an end cap or a label only (N-terminal biotin on a linker: ado-ado)
Sequence (Q14160 999-1103): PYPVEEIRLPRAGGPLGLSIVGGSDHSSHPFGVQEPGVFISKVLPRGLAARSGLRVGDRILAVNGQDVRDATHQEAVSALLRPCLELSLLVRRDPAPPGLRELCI

Row | Binder | pKd
53 | QSARLWETSI [ADAM22, Q9P0K1] | 5.32
54 | QSPANIYYKV [EFNB1, P52799] | below the threshold

molecular target: T6, SNTB1, Q13884; assay: holdup assay; design: key: below the threshold = too weak to quantify, mostly under pKd 3.1 to 4; settings: plain residues with an end cap or a label only (N-terminal biotin on a linker: ado-ado)
T6 sequence (Q13884 107-205, limits assumed, looked up): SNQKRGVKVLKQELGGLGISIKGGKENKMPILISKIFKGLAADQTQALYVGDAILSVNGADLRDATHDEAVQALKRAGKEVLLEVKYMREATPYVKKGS

Row | Binder | pKd
55 | QSARLWETSI [ADAM22, Q9P0K1] | 4.69
56 | QSPANIYYKV [EFNB1, P52799] | below the threshold

molecular target: SNX27, Q96L92; assay: holdup assay; design: key: below the threshold = too weak to quantify, mostly under pKd 3.1 to 4; settings: plain residues with an end cap or a label only (N-terminal biotin on a linker: ado-ado)

Row | Binder | pKd
57 | QSARLWETSI [ADAM22, Q9P0K1] | 5.41
58 | QSPANIYYKV [EFNB1, P52799] | below the threshold

molecular target: T7, TX1BP3, O14907; assay: holdup assay; design: key: below the threshold = too weak to quantify, mostly under pKd 3.1 to 4; settings: plain residues with an end cap or a label only (N-terminal biotin on a linker: ado-ado)
T7 sequence (O14907 10-122, limits assumed, looked up): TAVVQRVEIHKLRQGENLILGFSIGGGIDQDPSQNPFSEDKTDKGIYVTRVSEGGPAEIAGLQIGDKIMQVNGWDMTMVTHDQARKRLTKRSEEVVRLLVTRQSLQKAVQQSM

Row | Binder | pKd
59 | QSARLWETSI [ADAM22, Q9P0K1] | 4.8
60 | QSPANIYYKV [EFNB1, P52799] | below the threshold
